Laboratory results: patent US20210340217A1, “NOVEL PEPTIDES AND COMBINATION OF PEPTIDES FOR USE IN IMMUNOTHERAPY AGAINST OVARIAN CANCER AND OTHER CANCERS” (Immatics Biotechnologies GmbH, priority 2017, published 2021)

These substances were tested against HLA-B*44:02 (Homo sapiens, UniProt P01889, A223V/A65T/A93T/A95T/D201E/D98Y/E176V/E187L/E204Q/E69K/G107R/H137Y/K202T/L105A/L119I/N104T/N87E/Q56L/Q94N/R106L/R155S/R180D/S101N/S121R/S35A/S48T/T118I/V36M/W191S/Y140D/Y91S) (assay: MHC binding assay (UV-ligand exchange, beta2m ELISA)). Conditions: peptide exchange yield.
In short: (§1)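 Peptide–MHC complexes formed by UV-induced exchange of a UV-cleavable peptide for the test peptide. Exchange yield measured by streptavidin-capture ELISA detecting β2m (HRP anti-β2m, TMB, A450) on 100-fold diluted samples. Quantified against refolded HLA-A*02:01/MLA-001 standards (15-500 ng/ml).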

Row | Substance | Peptide exchange
1 | 425 (SEVPLPMAI; listed as Homo sapiens) [compound 425] | “+++” (>50 = +++)
2 | 173 (AEAQVGDERDY; listed as Homo sapiens) [compound 173] | “+++” (>50 = +++)
3 | 409 (REFVLSKGDAGL; listed as Homo sapiens) [compound 409] | “+++” (>50 = +++)
4 | 433 (SDSQVRAF; listed as Homo sapiens) [compound 433] | “+” (>10% = +)
5 | 181 (GEGPKTSW; listed as Homo sapiens) [compound 181] | “++” (>20% = ++)
6 | 431 (AEQDPDELNKA; listed as Homo sapiens) [compound 431] | “++” (>20% = ++)
7 | 56 (SEPDTTASW; listed as Homo sapiens) [compound 56] | “+++” (>50 = +++)
8 | 418 (FEDAQGHIW; listed as Homo sapiens) [compound 418] | “+++” (>50 = +++)
9 | 424 (TEFPLFSAA; listed as Homo sapiens) [compound 424] | “+” (>10% = +)
10 | 400 (GEIEIHLL; listed as Homo sapiens) [compound 400] | “+” (>10% = +)
11 | 188 (AEFAKKQPWW; listed as Homo sapiens) [compound 188] | “+++” (>50 = +++)
12 | 204 (RETSTSEETSL; listed as Homo sapiens) [compound 204] | “+++” (>50 = +++)
13 | 189 (KEFLFNMY; listed as Homo sapiens) [compound 189] | “++” (>20% = ++)
14 | 209 (TEVSRTEL; listed as Homo sapiens) [compound 209] | “++” (>20% = ++)
15 | 182 (KEATEAQSL; listed as Homo sapiens) [compound 182] | “+++” (>50 = +++)

What follows are substances tested against HLA-A*03:01 (Homo sapiens, UniProt P04439) in the same assay as above. Conditions: peptide exchange yield.
In short: as §1

Row | Substance | Peptide exchange
16 | 287 (RRIHTGEKPYK; listed as Homo sapiens) [compound 287] | ++ (>20% = ++)
17 | 25 (GTSPPSVEK; listed as Homo sapiens) [compound 25] | ++ (>20% = ++)
18 | 266 (ISYSGQFLVK; listed as Homo sapiens) [compound 266] | +++ (>50 = +++)
19 | 277 (TTALKTTSR; listed as Homo sapiens) [compound 277] | + (>10% = +)
20 | 275 (STTFPTLTK; listed as Homo sapiens) [compound 275] | ++ (>20% = ++)
21 | 88 (VVHAVFALK; listed as Homo sapiens) [compound 88] | +++ (>50 = +++)
22 | 272 (RQPERTILRPR; listed as Homo sapiens) [compound 272] | ++ (>20% = ++)
23 | 21 (AVRKPIVLK; listed as Homo sapiens) [compound 21] | +++ (>50 = +++)
24 | 257 (VTADHSHVF; listed as Homo sapiens) [compound 257] | + (>10% = +)
25 | 270 (AVFNPRFYRTY; listed as Homo sapiens) [compound 270] | ++ (>20% = ++)
26 | 283 (IVQEPTEEK; listed as Homo sapiens) [compound 283] | ++ (>20% = ++)
27 | 271 (RMFADDLHNLNK; listed as Homo sapiens) [compound 271] | +++ (>50 = +++)
28 | 263 (SSSSATISK; listed as Homo sapiens) [compound 263] | ++ (>20% = ++)
29 | 261 (HTFGLFYQR; listed as Homo sapiens) [compound 261] | ++ (>20% = ++)
30 | 91 (RSLRYYYEK; listed as Homo sapiens) [compound 91] | ++ (>20% = ++)
31 | 100 (RLFTSPIMTK; listed as Homo sapiens) [compound 100] | +++ (>50 = +++)
32 | 28 (KTYETNLEIKK; listed as Homo sapiens) [compound 28] | +++ (>50 = +++)
33 | 101 (RVFTSSIKTK; listed as Homo sapiens) [compound 101] | ++ (>20% = ++)
34 | 264 (AIKVIPTVFK; listed as Homo sapiens) [compound 264] | ++ (>20% = ++)
35 | 89 (RVAELLLLH; listed as Homo sapiens) [compound 89] | ++ (>20% = ++)
36 | 107 (RLQEWKALK; listed as Homo sapiens) [compound 107] | +++ (>50 = +++)
37 | 85 (VLLGSLFSRK; listed as Homo sapiens) [compound 85] | ++ (>20% = ++)
38 | 269 (RLKGDAWVYK; listed as Homo sapiens) [compound 269] | +++ (>50 = +++)

Row | Substance | Peptide exchange
39 | 84 (KLQPAQTAAK; listed as Homo sapiens) [compound 84] | ++ (>20% = ++)
40 | 267 (VTDLISPRK; listed as Homo sapiens) [compound 267] | ++ (>20% = ++)
41 | 286 (TVAPPQGVVK; listed as Homo sapiens) [compound 286] | ++ (>20% = ++)
42 | 87 (AVAPPTPASK; listed as Homo sapiens) [compound 87] | ++ (>20% = ++)
43 | 95 (QSMYYPLQLK; listed as Homo sapiens) [compound 95] | ++ (>20% = ++)
44 | 109 (KTFTIKRFLAK; listed as Homo sapiens) [compound 109] | ++ (>20% = ++)
45 | 22 (SLKERNPLK; listed as Homo sapiens) [compound 22] | ++ (>20% = ++)
46 | 105 (RLFSWLVNR; listed as Homo sapiens) [compound 105] | +++ (>50 = +++)
47 | 259 (KTLELRVAY; listed as Homo sapiens) [compound 259] | ++ (>20% = ++)
48 | 273 (RVNAIPFTY; listed as Homo sapiens) [compound 273] | +++ (>50 = +++)
49 | 284 (KSLIKSWKK; listed as Homo sapiens) [compound 284] | ++ (>20% = ++)
50 | 102 (SVLTSSLVK; listed as Homo sapiens) [compound 102] | ++ (>20% = ++)
51 | 260 (GTNTVILEY; listed as Homo sapiens) [compound 260] | +++ (>50 = +++)
52 | 30 (ALEVAHRLK; listed as Homo sapiens) [compound 30] | ++ (>20% = ++)
53 | 256 (RTEEVLLTFK; listed as Homo sapiens) [compound 256] | ++ (>20% = ++)
54 | 274 (KTFPASTVF; listed as Homo sapiens) [compound 274] | + (>10% = +)
55 | 265 (QIHDHVNPK; listed as Homo sapiens) [compound 265] | ++ (>20% = ++)
56 | 278 (NLSSITHER; listed as Homo sapiens) [compound 278] | ++ (>20% = ++)
57 | 262 (RSRLNPLVQR; listed as Homo sapiens) [compound 262] | ++ (>20% = ++)
58 | 279 (SVSSETTKIKR; listed as Homo sapiens) [compound 279] | ++ (>20% = ++)
59 | 20 (RMASPVNVK; listed as Homo sapiens) [compound 20] | ++++ (>75% = ++++)
60 | 93 (KILEEHTNK; listed as Homo sapiens) [compound 93] | ++ (>20% = ++)
